Measured values: US20240026407A1, “MODIFICATION OF SAPONINS” (GLAXOSMITHKLINE BIOLOGICALS SA, priority 2020, published 2024)

B1: 1030 (protein, listed as Lactobacillus crispatus)
chain: MKLVRIEVNHMETPIGFNLDNHLHLVGFLDGPVTSKLQRKLIIKAHDKEIVTFDWENADNLIFDFPINLTARTRYEVEMSVKNDREMSTATTYFETGQIDETLKGKWIGTEHKDLHSIILYKKFTTKDVKKARLYISGLGLFEAYLDGNKIGNEFLTPGFTDYNYDLQIESYDLTTELLKSGEHTLAIMLGDGWYRGKLGLKVHGGQPNNYGDQLMAIADLRINDDQQIIVTDKSWQVTTSPITHSGIYYGEDLDDNRQLNELANAIELTSPTKHLVDRQSLPIQRHEQFSVKEIIKTPSGATVLDFGQNMAGWLEFKNTIPKGEKVSIEFGEIMLDGEFYRDNLRSARAQFTYVSDGKEKWVRPHFTYFGFRYVKLNDFEGEIDPNNFRAVALYSNMIETGEIITNNSDVNRLFENVKWGQKSNFIDIPTDCPQRDERLGWTGDAAIFSKTASYNMDTYQFLKKYAYDIAVEQSKNNGFVPLYVPAVDTKDGGKAVWSDAATIIPWIAYKRTGDLAILRQNIGAMMSWVDWIHDRAVSHGQEYLWLGDDQLGDWLALDTEDIMKLKGKTPDDLIASAYYYYSAKLVSQSAETLNMKHEKQYYGQLAKLIKHAFINHFFTKDGLSIADTQTGLALCLSFKLYPANAKDNLINKLVEKVEVNQNHLNTGFVGTPLLLPALTDNGQQDLALRLFLNTDFPSWLFEVKNGATTIWERWNSVDSEGHIAQNGMNSLNHYSSGAVMEWAYEDLLGLKQNGNDAVFKPMLTAKLNQISGQIALPTGIVKVAWHIKSSKLIHLEMDIPYGSHLKLILPKHEQDIPTIFKSGHYELDVEVINPIVEAFDVHTPLAEYRNQTSLTKKLSELVPFWGFLAMPGNMDHFAKYSLLQLSREMRGIGFKPFTQEDIEKINQLFKEYHFKGAEK
B2: 1026 (protein, listed as Pseudarthrobacter chlorophenolicus)
chain: MTAPARLRAEHLREAMGLAVREPRLSWTPPAATAGQTAYRIMADNGWDTGRIASAESGGIAYGGPALDSRSRFDWRVRTWNVDSDGTETASDWSESMPVELGLLHPSDWTGQWISPGEEAVSPPGERPGYALTRTFTLPAAPDKARAYATAHGIYELFINGQRVGDQQLTPGSTSYNTTLQVQAYDVTALLTAGLNTIRAVLTDGWYRGTFGYTRDADMYGTHTAFLAQLELESEAGRQVIGTDPSWLVSATEVISADLMAGQRVDFRAYDTGSAPSAGKAPGVRAAVVRPGSFGALTGPLAPPTRVTEELAPVSITRLRNGHQVVDFGQNIHGWVRLAALGGPGETVTLEYGEALGRDGDVTRDHLRPHDFRVPGAFLDAGQVDTVTASGAPGEVFEPRHTSHGFQFVSVRGLATDLRPRDVTACLVRTDLERIGTFHCSDERLNKLHGIVEWSFLGNSCEVPTDCPQREKAGWTGDWQLFVPTAAYLYDVTGFTRKWLRDVRADQWDNGVIANISPSPGPAITSAEFMGFTNGSSGWGDAIVMVPWEAYLATGDASILAENWDAMNRWLGFVRTTAETRRHAARATQAPVPADHEKYLWDTGFHFGEWMEPDGPGPDLFASRTADNGIVATAYYRHTTDLMARIARALGLAAEAADLARLSDAIRDAWATEYLDESGRVTVASQANCVRALAFQLAGTEHRAAVTTQLVELIRDAGTHLGTGFLATPYLLPVLADHGHLGLAYELLMQDSEPSWLAMVDRGATTVWELWNGLDAGGAPHQSLNHYSKGAVVSFLHRYTAGLRQAPGSAGWNRIIIEPRPGAGLTSAATSHQGPHGPITVAWTLSTDALGPDEMTADGVLTLTADIPSGTTAEILLPGQPAAVVGPGHHVFSAATGGDTAHPELMRSTL
B3: 1051 (protein)
chain: MDGGPLFLSWQCTGGLRQTAYEIHLTADDALVWESGKVATQSMHADAPAVEGARVRGSWKVRLWDENNCPGPWSGARFETGLSTGEWQGLWVAPETAPLDIPGDDAINAFARPNWERKQAEKEAAGKGAAEPYQPHRPASYLRKTFTAPSGRGRLYITAKGLYVAWLNGVRVGDMVLAPGSFTADKHLGAQTYDVTALLREGENELLIALGDGWYRSTSGVDGDRNLFGDTLGVLFQLEVDGKVVCVSDDTMQATQQGPIRQNDLQQGEVYDARLEGLLSGWHEVQTYRDALPVTGMNTVPIREREAFPGRLFTAPNGETVLDFGQNIAGYVEMTLTAHAGQKVLLTCGETLDENGNFTQENFQDRSRHNEGGTAQMLELICKEGVNHWKPSFTIMGFQYAKVETDADLTGAVFTAHAVYSDMAVTGSFTCGNKAVNRLVANSIWSQKGNFCDIPTDCPTRERAGWTGDMGVFIETGLTLMDCYPVVAKWLKECRLNQYPDGRMANIAPPNSRPGYMTPMLCMSAGWGDAAILVPYALYKRTGDRRILADNYEMMQRWYAFLLGRAQQTTEEQQSGEYAKYTVLNGLDYGEWCEPGVTPMQAMANPRKSVGTAYLAYSGRLLAEIAAVLGRQEEADAYRATADKAVKAYRAAFTEDGVIHSDRQCEYVRAIAFALLGEEESRAAATTLNQMVVDNGCHLNTGFLSTPFLCGVLAQYGYIDTAYRLLLQPEAPGWLYEVNKGANTVWETWTGIDAEGKPHESLNHYSYGAICGWLFGGVCGIHFTDGQLTIAPTPHKALGYAKAVYDSPAGRIESGWRYEGDTVTYEFTIPTNITAHIHLPDGRTRMLSAGTHRL
modifications: Subdoligranulum variabile
B4: 1013 (protein, listed as Chloroflexus aurantiacus)
chain: MSYEQLSTSQSQVSRLIVRVEHYQSTLGIGNPCPRLSWIIETNATNWLQTAYEIECYTKDGRVRGRTGWIHSPESVLVPWPFEPLTSREQVLVRVRVRDNKGDISPWSEMLPIEAGLLKVGDWSARFITPDWDDDILKPQPCPMLRHEFRVDNDVIQARLYITSLGVYEAQINGVVVGDQVLAPGWTVYDRRLRYQTFDVTMHLREGINAIGVILGDGWFRGRLGFGGGRRNIYGNRLAVLAQLEITYRDGSTQQVCTDQTWRSTTGPILASDIYDGEIYDARLELPNWSKPGFADHQWSGVRLLEWDFSTLVAPISPPIRRIEMVLPVAIFSSPSGRTIVDFGQNLVGRVRLTVSGPPGQMITVRHAEVLEGGELSTRPLRFAAATDRYILRGDGTEVWEPRFTFHGFRYAEIDGWPGELRTTDIVAVVIHSDMERIGWFTCSDQLLNRFHENVVWSMRGNFLDVPTDCPQRDERLGWTGDIQVFAPTAVFLYDVAGLLQSWLIDLAIEQEKLGGAVPHVVPNVLGPSAAGAAAWGDAATVVPWVLFQRYGDKRVLETQYKSMRSWVDYIATKAGHTYLWDRGFQFGDWLDPTAPPDKPGQARTDKAIVASAYFIFSATLVAKAAHVLGYDADADFYADLAHKARFAFAKEYITPAGRLMCDTETAYALALVFDLFPTDTQRRYAGERLAALVRDSGYHIRTGFVGTPLICDALCSVGHCRVAYRLLMQRECPSWLYPVTMGATTIWERWDSMLPDGSINPGEMTSFNHYALGAVADWMHRTIGGLIPVEPGYRRIEFRPQPGGEIVYARVSHRTPYGLAECFWRIEEGVFYLRVVVPPNTTAQVFLPGRDDQPLDVGSGIWQWSIPCQDTATRGSYTVDDLVDEIIDDEVAREAVNQVLSQVDAWRLFGNLLLNERSASLREAIQALPNSEIVIERLNALLTRIPKKDGI
B5: 1014 (protein, listed as Thermoclostridium stercorarium)
chain: MMRVYNLKTNRIKNPMGFVINKPKLSWLVESDTAKHQVAAQVEISADINFENIIFDSGKRTDIDSISYSPQVELKPRTRYYWRVRVWGDDGSEAVSEAAWFETSKMDEPWKAKWITPDFDPSVHPVVFTDFSIERDVADARAYVCGLGLYEMSVNGEKTGDEYLAPGLVAYDKWIPYQTYDITSQLKKGINTAEFLLGNGWYKGRYGLNRKQPFRYGNEFALICEIHITYQDGTADVIYTDTSWKARKSKVIDSGIYDGEIYDDTFCDDAVYPVRIADLDVNKLEPRRSPGIKIKERIKPAEIIRTPEGETVIDMGQNMVGWLEFTNRAPKGAEIMLQFGEVLQDGNFYRDNLRTAKCEFHYISDGKVKKVRPHFTFYGFRYVKLTKWEGEVNPEDFTGLVLYSDLERTGNITTDNSLVNRLFLNALWSQKGNFLDVPTDCPQRDERMGWTGDAQVFSGAAAFNMDVFAFFGKYLYDLKQEQKARGGNVPVVVPAHDVKQNGACGWGDAAVIIPWNMYLHYGDVSILEQQYKSMKGWVDYIKSKDDAAGGRRLWLNDFHYGDCVSLDVEDPFNRFGGTEHAYLASAFYSYSAGIVSKAAKILNKKEDAEYYRKLSEEVKNAIRKEYFTPTGRLAVNTQTAYVIALYMDLVPDEWKERVAFELRKKLKETKYHLRTGFLGTPYLCRVLSEYGSNDIAYRLLTNTDYPGWLYPVTMGATTIWERWNSMLPDGKVSDTGMNSFNHYSYGSIVEWIYRNAAGIQPVEDAPGFRRFRLKPQPHYLLKSLDAEFLSPAEKIISRWNINENGSVSFYFRIPFNTTAELVLPDTEVQDWKEFMSLNVVNILILTCLKDLTRKCTEQILQCGKFMKMRGQKKL
B6: 1006 (protein, listed as Geobacillus sp.)
chain: MAAIKATDLRTEGILNPFGLDAERPRLSWSFGQPAGAGSGQSAYRIAVASSEERLKLGEPDVWDSGIVRSCEHVSIPYEGASLMPRRRYYWHVTAWDGQGQPAVSKAAWWETGLLAEAKWSERWIGDAAEAADRGPMIQLRKSFEVKKPVARARAYVTGLGHYELRLNGAKVGDRQLEPGWTNYDKTVLYSVYDVTPGLRQGENAVGVLLGNGFYRVAGGRYAKFKGSFGNPKCLAELVIEYADGTAETIVTDGTWSLSDSPLTFSCIYGGEDYDAGLERTGWDGPGFVEDGDWRRACELEPPPGKLTAQSSPPLAITKRLPARSVSEPRRGVYVYDLGQNFSGWPCIRVSGPNGTRVKLKPAELLTEEGLANQKYSGSPYELNYVLKGEGIEEWHPRFTYYGFRYVQVEGAAPAGEGVEESDLPVLHGLEGHMIGPDVEDAGGFRCSDPLLNRIHEIINWAILSNMKSVFTDCPHREKLGWLEQLHLMGPSVMFNYECEALLEKIMRDMSDAQLPNGMVPTTAPEYVVFEEPWHMFRDAAAWGGSYILLAWEMLRRYGSVGTLERHYEGMGRYVHYLTEASDGFILRGGLGDWYDIGPKGPGFAQNTSVALVETAIFFGLARALGEIALVLGKAEDASAHSRLSESIRTAFHSAFYDTANAMYAEGSDTAIAMPLAIGLAPEELRGVLLDRLVRNIGERGWQTTAGDVGHRYVLSALASGGRSDVVGKMARNPHAPGYAYQVAHGATSLTEAWDGPTVGKSQNHFMLGHLEEWLYASLAGLDYRYRPEVGRYLVKAKPTVVQGVEWAEAWQQLRSGRASVRWELGPSNQMTVRVDIPANSEGLIRIPSSPDTPVLASGPDVAYEGHEDGHAVYRSGPGSYCFTFAANHRTTEMERERM

Tests used:
Format in all cases: biochemical, Quillaja saponaria
[1] = Experiment 6-1: screening of rhamnosidases for derhamnosylation of saponins in treated bark extract (2%), QS-17 2296 to QS-18 2150 (PAR %); conditions: TBE 2%, pH 7.5, 30 degC, 18 h; TIC peak area ratio percent of rhamnosylated starting saponin to derhamnosylated product, LCMS/MS; negative controls 4.876, 5.225
[2] = Experiment 6-1: screening of rhamnosidases for derhamnosylation of saponins in treated bark extract (2%), desglucosyl-QS-17 2134 to QS-21 1988 (PAR %); conditions: TBE 2%, pH 7.5, 30 degC, 18 h; TIC peak area ratio percent, LCMS/MS; negative controls 2.719, 2.158
[3] = Experiment 6-1: screening of rhamnosidases for derhamnosylation of saponins in treated bark extract (2%), QS-17 2310 to QS-18 2164 (PAR %); conditions: TBE 2%, pH 7.5, 30 degC, 18 h; TIC peak area ratio percent, LCMS/MS; negative controls 3.061, 2.429
[4] = Experiment 6-1: specificity of rhamnosidases towards other rhamnose residues (C3 saccharide rhamnose, C28 saccharide rhamnose); conditions: TBE 2%, pH 7.5, 30 degC, 18 h; LCMS/MS; negative controls 0.18, 0.17

Molecule | QS-17 (PAR %) [1] [%] | Peak75 (PAR %) [2] [%] | Peak57 (PAR %) [3] [%] | ratio PP/QS-21 [4]
B1 | 5.315 | 2.127 | 3.621 | 0.17
B2 | 5.271 | 2.501 | 2.755 | 0.17
B3 | 5.289 | 2.426 | 2.918 | 0.16
B4 | 5.272 | 2.388 | 2.576 | 0.17
B5 | 5.309 | 2.741 | 3.359 | 0.18
B6 | 5.339 | 2.645 | 3.237 | 0.18
